Holding throughout (format): cell-based, E. coli
Data set [1] concerns glycolate production from formaldehyde. In words: High throughput resting-cell screening of first round HACS variants co-expressed with LmACR. To be noted: 5 mM formaldehyde, 3 hours. From the text:
We used glycolic acid (glycolate) productivity per cell density (uM glycolate/OD600) as indicator of HACS activity. Glycolate can be produced from formaldehyde as sole carbon source in the presence of active HACS variant and acyl-CoA reductase from Listeria monocytogenes (LmACR) (FIG. 20A). LmACR is shown to be capable of catalyzing oxidation reaction from formaldehyde to formyl-CoA (Chou, A., et al. Nat. Chem. Biol. 15:900-906 (2019)). HACS condenses formaldehyde and formyl-CoA to form glycolyl-CoA, which can then be hydrolyzed to glycolate via native thioesterase activities (FIG. 20A).
To prototype glycolate production pathway from formaldehyde in vivo, we constructed vectors overexpress various HACS candidates and LmACR, with both under control of the IPTG-inducible T7 promoter in pCDFDuet-1 and pETDuet-1, respectively (FIG. 20C). […]
Cells from the above pre-cultures were then centrifuged (4000 rpm, 22° C.), washed with the above minimal media without any carbon source, and resuspended with 1 mL of above minimal media containing indicated amounts of carbon source. […] After incubation at 30° C. for 3 hours, the cells were pelleted by centrifugation and the supernatant analyzed by HPLC or GC-MS as described below. […] The soluble cell lysates obtained from the supernatant were analyzed using SDS-PAGE. […]

For data set [2], the system named is 2,4-dihydroxybutyric acid production from 3-hydroxypropionaldehyde and formate. In words: HACS screening with 3-hydroxypropionaldehyde and formate (DHB productivity). To be noted: 5 mM 3HP and 20 mM formate, first round. The text has this:
(§1) We used 2-hydroxyacid productivity per cell density (μM/OD600) as indicator of HACS activity. 2-Hydroxyacids can be produced co-feeding various aldehydes and formic acid (formate) as carbon source in the presence of active HACS variant and acyl-CoA transferase from Clostridium aminobutyricum (CaAbfT). CaAbfT is shown to be capable of catalyzing reaction from formate to formyl-CoA (Nattermann, M., et al. ACS Catal 11 (9): 5396-5404 (2021)). HACS condenses aldehyde and formyl-CoA to form 2-hydroxyacyl-CoA, which can then be hydrolyzed to 2-hydroxyacid via native thioesterase activities (FIG. 31A).
(§2) For the in vivo prototyping, we engineered vectors to independently control expression of HACS variants and CaAbfT, with HACS under control of the IPTG-inducible T7 promoter in pCDFDuet-1 and CaAbfT under control of a cumate-inducible T5 promoter in pETDuet-1 (FIG. 31B) and transformed them into the engineered strain of E. coli described in EXAMPLE 3.
(§3) The HACS variants were screened for 2-hydroxyacid production using the high throughput screening platform as described in EXAMPLE 3 by co-feeding 5 mM aldehyde and 20 mM formate. The cells were harvested after 1 hour by centrifugation and the supernatant analyzed by HPLC (as described in EXAMPLE 2) or SoGO method.
We used 2,4-dihydroxybutyric acid (DHB) productivity per cell density (uM DHB/OD600) as indicator of HACS activity. […]

Data set [3] deals with tartronate production from glyoxylate and formate. In words: HACS screening with glyoxylate and formate (tartronate productivity). The settings on record: 5 mM glyoxylate and 20 mM formate, first round.
Source text: as §1, §2, §3
We used tartronic acid (tartronate) productivity per cell density (uM tartronate/OD600) as indicator of HACS activity. […]

B1: JGI15: HACS variant; GenBank HAK63664.1 (protein)
chain: MAKSEGKVNGATLMARALQQQGVQYMFGIVGFPVIPIAIAAQREGITYIGMRNEQSASYAAQAASYLTGRPQACLVVSGPGVVHALAGLANAQVNCWPMLLIGGASAIEQNGMGAFQEERQVLLASPLCKYAHQVERPERIPYYVEQAVRSALFGRPGAAYLDMPDDVILGEVEEAAVRPAATVGEPPRSLAPQENIEAALDALQSAKRPLVIVGKGMAWSRAENEVRQFIERTRLPFLATPMGKGVMPDDHPLSVGGARSHALQEADLVFLLGARFNWILHFGLPPRYSKDVRVIQLDLSAEEIGNNRQAEVALVGDGKAIVGQLNQALSSRQWFYPAETPWREAIAAKIAGNQAAVAPMIADNTSPMNYYRVYRDIAARLPRNAIIVGEGANTMDIGRTQMPNFEPRSRLDAGSYGTMGIGLGFAVAAAAVHPGRPVIAVQGDSAFGFSGMEFETAARYGMPIKVIILNNGGIGMGSPAPRDGQPGMPHALSHDARYERIAEAFGGAGFYVTDSAELGPALDAAMAFKGPAIVNIKIAATADRKPQQFNWHG
For B1, the “glycolate productivity and relative HACS expression compared with RuHACL” value in data set [1] was “better glycolate productivity and relative HACS expression than the starting reference”. Also, in data set [2], the DHB productivity entry is reported as “decent DHB productivity”.

B2: JGI20: HACS variant; GenBank PWB41796.1 (protein)
chain: MGQITGAQIVARALKQQGVEYMFGIVGIPVIPIAMFAQREGIKFYGFRNEQSASYAAAAVGYLTGRPGVCLGVSGPGMIHGVAGMANAWSNCWPMILIGGANDSYQNGQGAFQEAPQIEAARPFAKYCARPDSLARLPFYVEQAVRTSIYGRPGAVYLDLPGDIITGAMEEEDVHFPPRCPDAPRMMAPQESIDAAMAALKSAERPLVIVGKGAAYSRAENEVREFLETTQLPYLASPMGKGVMPDDHPLSIAPARSAALLGADVILLMGARLNWMMHFGHPPRFDPKVRVIQMDISAEEIGTNVPTEVALVGDAKAITTQLNASLKQQPWQYPSETTWWTGLRKKIDENGATVAEMMADESVPMSYYRVYREIRDLIPNDAIIQNEGASTMDIGRTLMPNFLPRHRLDAGSFGTMGVGLGQAIAAAAVHPDKHVFCIEGDSAFGFSGMEVETAARYGMKNITFIIINNNGIGGGPDTLDPTRVPPSAYTPNAHYEKMAEIYGGKGYFVTEPSQLRPALEEAIKADKPAIVNIMISATSQRKPQQFAWLTR
As to B2, the “glycolate productivity and relative HACS expression compared with RuHACL” value in data set [1] was “better glycolate productivity and relative HACS expression than the starting reference”. Moreover, the “better tartronate productivity compared to other HACS variants” value in data set [3] is 30%. In data set [2], the DHB productivity result is on record as “decent DHB productivity”.
